Data: patent US20200247894A1 (Regeneron, published 2020)

T1: human IL-2Rγ endogenously expressed on NK-92 and Jurkat cells (human, UniProt P31785 23-369)
T1 construct: whole, on cells; on cells it stands with the other receptor subunits of the cell line; also called IL-2Rg; CD132
T1 sequence (looked up): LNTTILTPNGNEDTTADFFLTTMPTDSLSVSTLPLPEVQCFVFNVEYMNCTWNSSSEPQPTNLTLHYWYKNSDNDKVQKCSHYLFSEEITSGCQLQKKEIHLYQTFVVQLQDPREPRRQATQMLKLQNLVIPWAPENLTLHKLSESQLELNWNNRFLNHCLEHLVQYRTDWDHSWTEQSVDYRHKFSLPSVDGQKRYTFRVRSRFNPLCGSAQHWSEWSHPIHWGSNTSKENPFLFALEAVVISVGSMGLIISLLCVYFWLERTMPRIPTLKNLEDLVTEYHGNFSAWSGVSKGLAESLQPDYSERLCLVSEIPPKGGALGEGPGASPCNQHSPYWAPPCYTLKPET

T2: mouse IL-2Rγ endogenously expressed on MC/9 cells (mouse, UniProt P34902 23-369)
T2 construct: whole, on cells
T2 sequence (looked up): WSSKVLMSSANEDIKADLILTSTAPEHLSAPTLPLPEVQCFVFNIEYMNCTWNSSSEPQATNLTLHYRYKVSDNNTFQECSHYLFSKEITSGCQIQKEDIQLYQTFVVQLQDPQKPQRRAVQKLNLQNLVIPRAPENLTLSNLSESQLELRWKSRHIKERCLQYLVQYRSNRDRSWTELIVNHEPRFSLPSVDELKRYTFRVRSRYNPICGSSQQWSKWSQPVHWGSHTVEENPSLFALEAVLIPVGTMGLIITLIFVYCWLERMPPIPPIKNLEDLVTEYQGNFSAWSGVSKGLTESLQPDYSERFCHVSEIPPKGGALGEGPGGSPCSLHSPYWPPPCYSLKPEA

T3: D1 domain of human IL-2Rγ extracellular domain expressed with a C-terminal myc-myc-hexahistidine tag (human)
T3 construct: also called human IL2Rγ domain 1
T3 chain: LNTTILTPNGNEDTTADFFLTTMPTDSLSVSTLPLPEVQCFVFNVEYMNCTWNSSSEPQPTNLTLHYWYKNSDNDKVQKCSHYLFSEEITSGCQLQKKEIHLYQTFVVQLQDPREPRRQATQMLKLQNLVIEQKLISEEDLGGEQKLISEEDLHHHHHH

T4: D2 domain of human IL2Rγ extracellular domain expressed with a C-terminal myc-myc-hexahistidine tag (human)
T4 construct: also called human IL2Rγ domain 2
T4 chain: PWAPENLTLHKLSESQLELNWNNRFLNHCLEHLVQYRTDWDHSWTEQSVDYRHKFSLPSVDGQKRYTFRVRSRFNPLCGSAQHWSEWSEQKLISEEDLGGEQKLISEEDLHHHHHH


Assays:
[1] = biological target: T1, human IL-2Rγ endogenously expressed on …; assay: flow cytometry, 10 ug/ml antibody, Jurkat cells (endogenous human IL-2Rg)
Experimental: (§1) For flow cytometry analyses, the cells were pre-incubated with mouse IgG at 100 μg/ml for 15 minutes at room temperature (RT) to block the binding of the antibodies to Fc receptors. […] Cells were washed, fixed using BD CytoFix™ (BD biosciences, #554655) and analyzed on an IQue® (Intellicyt®) Flow Cytometer or Accuri Flow cytometer (BD). […] The results were analyzed using ForeCyt® (IntelliCyt®) software to determine the geometric means of fluorescence (MFI) for viable cells. Binding ratios were calculated by normalizing the MFI of the test sample by the MFI of the unstained sample.

[2] = biological target: T2, mouse IL-2Rγ endogenously expressed on …; assay: flow cytometry, 10 ug/ml antibody, MC/9 cells (endogenous mouse IL-2Rg)
Experimental: as §1

[3] = biological target: T1, human IL-2Rγ endogenously expressed on …; assay: flow cytometry, 10 ug/ml antibody, NK-92 cells (endogenous human IL-2Rg)
Experimental: as §1

[4] = biological target: T3, D1 domain of human IL-2Rγ extracellular …; assay: SPR, mAb captured on anti-hFc, 37 C
Experimental: (§2) Equilibrium dissociation constants (KD values) for IL-2Rγ binding to purified anti-IL2Rγ monoclonal antibodies were determined using a Biacore 4000 instrument equipped with a real-time surface plasmon resonance biosensor. All binding studies were performed in 10 mM HEPES, 150 mM NaCl, 3 mM EDTA, and 0.05% v/v Surfactant Tween-20, pH 7.4 (HBS-ET) running buffer at 25° C. and 37° C. The Biacore sensor surface was first derivatized by amine coupling with a monoclonal mouse anti-human Fc antibody (GE, # BR-1008-39) to capture anti-IL2Rγ monoclonal antibodies.
(§3) The dissociation of monoclonal antibody bound IL2Rγ reagents were monitored for 8-10 minutes in HBS-ET running buffer. Kinetic association (kₐ) and dissociation (kd) rate constants were determined by fitting the real-time sensorgrams to a 1:1 binding model using Scrubber 2.0c curve fitting software. Binding dissociation equilibrium constants (KD) and dissociative half-lives (t_{1/2}) were calculated from the kinetic rate constants as: […]

[5] = biological target: T4, D2 domain of human IL2Rγ extracellular …; assay: SPR, mAb captured on anti-hFc, 25 C
Experimental: as §2

[6] = biological target: T3, D1 domain of human IL-2Rγ extracellular …; assay: SPR, mAb captured on anti-hFc, 25 C
Experimental: as §2, §3

[7] = biological target: T4, D2 domain of human IL2Rγ extracellular …; assay: SPR, mAb captured on anti-hFc, 37 C
Experimental: as §2

Row | Binding Ratio (Sample over unstained MFIs) [1] | Raw MFI [1] [MFI] | Binding Ratio (Sample over unstained MFIs) [2] | Raw MFI [2] [MFI] | Binding Ratio (Sample over unstained MFIs) [3] | Raw MFI [3] [MFI] | 100 nM Ag Bound [4] [RU] | 100 nM Ag Bound [5] [RU] | binding result [5] | 100 nM Ag Bound [6] [RU] | 100 nM Ag Bound [7] [RU] | binding result [6] | binding result [4] | Binder
1 | 2 | 179 | 1 | 175 | 12 | 1850 |  |  |  |  |  |  |  | H4H12926P2 (antibody, human IgG4 S228P, kappa, V domains shown, fully human anti-IL2Rg antibody, human IgG4) VH: QVQLQQSGPGLVKPSQTLSLTCAISGDSVSSNIAAWNWIRLSPSRGLEWLGRTFFRSTWFYDYSLSVKGRITINPDTSKNQFSLHLNSVTPEDAAVYYCARTGRRWSLDYWGQGTLVTVSS VL: not shown
2 |  |  |  |  |  |  | -1 | 1 | no binding (tested: 100 nM) | 1 | 0 |  |  | H4H12924P2 (antibody, human IgG4 S228P, kappa, V domains shown, human IgG4) VH: EVQLVESGGGLVQPGRSLRLSCAASGFTLEDYAMHWVRQAPGKGLEWVSGISWNRGSTGYADSVKGRFTISRDNAKNSLYLQMTSLRAEDTALYYCAKGFYSMDVWGQGTTVTVSS VL: not shown
3 | 1 | 104 | 1 | 192 | 2 | 231 |  |  |  |  |  |  |  | H4H12924P2 (antibody, human IgG4 S228P, kappa, V domains shown, fully human anti-IL2Rg antibody, human IgG4) VH: EVQLVESGGGLVQPGRSLRLSCAASGFTLEDYAMHWVRQAPGKGLEWVSGISWNRGSTGYADSVKGRFTISRDNAKNSLYLQMTSLRAEDTALYYCAKGFYSMDVWGQGTTVTVSS VL: not shown
4 |  |  |  |  |  |  | 0 | -1 |  | 1 | -1 | no binding (tested: 100 nM) |  | H4H12908P (antibody, human IgG4 S228P, kappa, V domains shown, human IgG4) VH: EVQLVESGGRLVQPGGSLRLSCEASGFTFSNYGMTWVRQAPGKGLEWVSVISGSDNRKYYAESVKGRFTISRDNSKNTLYLQMNSLRAEDTAVYYCAKLGYSRSSKDFYYGMDVWGQGTTVTVSS VL: not shown
5 |  |  |  |  |  |  | 1 | -1 |  | 0 | 0 | no binding (tested: 100 nM) |  | H4H12899P (antibody, human IgG4 S228P, kappa, V domains shown, human IgG4) VH: QVQLVESGGDLVKPGGSLRLSCATSGFTFSDFYMTWIRQAPGKGLEWISYISNSGSIVKYADSVKGRFTISRDNAKNSLYLQMNSLRAEDTAIYYCARFYGDRWGQGTLVTVSS VL: DIQLTQSPSFLSASVGDRVTITCWASQGISTFLAWYQQKPGKAPKLLIYAASTLQSGVPSRFSGSGSGTDFTLTISSLQPEDFATYHCQQLNNYPWTFGQGTKVEIKR
6 |  |  |  |  |  |  | 2 | -1 |  | 0 | 1 | no binding (tested: 100 nM) |  | H4H12900P (antibody, human IgG4 S228P, kappa, V domains shown, human IgG4) VH: QVQLVESGGGLVKPGGSLRLSCEASGFTFNDFYMTWIRQAPGKGLEWIAYISKSGDKMRYADSVKGRFSTSRDNAKNSLSLQMNSLRAEDTAVYYCARFYGDIWGQGTLVTVSS VL: DIQLTQSPSFLSASVGDRVTITCWASQDISSFLVWYQQKPGKAPNLLIYAASALQSGVPSRFSGSGSGTEFTLTISSLQPEDFASYYCEQLNNYPWTFGQGTKVEIKR
7 |  |  |  |  |  |  | 1 | 0 |  | 1 | -1 |  | no binding (tested: 100 nM) | H4H12858P (antibody, human IgG4 S228P, kappa, V domains shown, human IgG4; also called REGN9433) VH: EVQLVESGGDLVQPGGSLRLSCTASGFIFRNYAMNWVRQAPGKGLEWLSGILGSNDNTYYVDSVKGRFTISRDNSRNTLYLQMNSLRAEDSAVYYCAKGDAGGFDYWGQGTLVTVSS VL: DVVMTQSPLSLPVILGQPASISCRSSQSLVSSDGNTYLNWFQQRPGQSPRRLIYKVSNRDSGVPDRFSGSGSGTDFTLKISRVEAEDVGAYYCMQGSYWPPTFGQGTKLEIKR
8 |  |  |  |  |  |  | 2 | 6 | no binding (tested: 100 nM) | 2 | 6 | no binding (tested: 100 nM) |  | H4H13538P (antibody, human IgG4 S228P, kappa, V domains shown, human IgG4) VH: EVQLVESGGGLVQPGGSLGLSCAASGFTFSNYAMSWVRQAPGKGLEWVSAVSGGGGGTYYADSVKGRFTISRDNSKNTVLLQMNSLRAEDTAVYYCARGRTGGLDYWGPGTLVTVSS VL: DVVMTQSPLSLPVIFGQPASISCRSSQSLVDSDGNTYLNWLQQRPGQSPRRLIYEVSNRDSGVPDRFSGSGSGTDFTLTISRVEAEDVGIYYCMQGTRWPPTFGGGTKVEIKR
9 | 18 | 1570 | 1 | 187 | 84 | 12500 |  |  |  |  |  |  |  | H4H12922P2 (antibody, human IgG4 S228P, kappa, V domains shown, fully human anti-IL2Rg antibody, human IgG4; also called REGN7256) VH: QVQLVESGGGVVKPGGSLRLSCAASGFTFSNSGIHWVRQAPGKGLEWVALISYAGSNKYYADSVKGRFTISRDNSKNTLSLQMNSLRAEDTAVYYCAKEVWTGTYDSFDMWGRGTMVTVSS VL: not shown
10 | 5 | 472 | 1 | 178 | 33 | 4910 |  |  |  |  |  |  |  | H4H12913P2 (antibody, human IgG4 S228P, kappa, V domains shown, fully human anti-IL2Rg antibody, human IgG4) VH: EVQLVESGGGVVRPGGSLRLSCAASGFTFDDYGMSWVRQAPGKGLEWISSINRNGGSADYADSVKGRFTISRDNAKNSLFLQMSSLRAEDTALYHCASGEFRFDYWGQGTLVTVSS VL: not shown
11 | 4 | 315 | 1 | 191 | 23 | 3490 |  |  |  |  |  |  |  | H4H12927P2 (antibody, human IgG4 S228P, kappa, V domains shown, fully human anti-IL2Rg antibody, human IgG4) VH: EVQLVESGGGVVRPGGSLRLSCATSGFTFDDYGMSWVRQVPGKGLEWVSSVNRNGGTTDYADSVKGRFTISRDNAKRSLFLQMNSLRAEDTALYHCATGELFFDYWGQGTLVTVSS VL: not shown
12 |  |  |  |  |  |  | 2 | 10 | no binding (tested: 100 nM) | 2 | 7 | no binding (tested: 100 nM) |  | H4H13541P (antibody, human IgG4 S228P, kappa, V domains shown, human IgG4) VH: EVQLVESGGGVVRPGGSLRLSCAASGFIFDDYDMSWVRQPPGRGLEWVSGIDWFGGTRGYADSMKGRFTISRDNAKNSLYLQMNSLRVEDTAFYYCARGGAIVGAVTPFDYWGQGTLVTVSS VL: DIQMTQSPSSLSASVGNRVTLSCRASQSINTYLSWYQQRPGKAPKLLIYAASSLQSGVPSRFSGSGAGTDFTLTISSLQPEDFATYYCQQSYSAPLTFGGGTKVEIKR
